Test results: the supplement of paper PMC7877785
± gives the uncertainty stated by the source.

Assay: self-splicing fitness, log relative to wild type (ln ratio); higher = more splicing; Tetrahymena group I intron in knt gene, E. coli kanamycin selection, DiMSum; sequences stand for … in CUCUCU…GGAGGGAAAAGUUAUCAGGCAUGCACCUGGUAGCUAGUCUUUAAACCAAUAGAUUGCAUCGGUUUAAAAGGCAAGACCGUCAAAUUGCGGGAAAGGGGUCAACAGCCGUUCAGUACCAAGUCUCAGGGGAAACUUUGAGAUGGCCUUGCAAAGGGUAUGGUAAUAAGCUGACGGACAUGGUCCUAACCACGCAGCCAAGUCCUAAGUCAACAGAUCUUCUGUUGAUAUGGAUGCAGUUCACAGACUAAAUGUCGGUCGGGGAAGAUGUAUUCUUCUCAUAAGAUAUAGUCGGACCUCUCCUUAAUGGGAGCUAGCGGAUGAAGUGAUGCAACACUGGAGCCGCUGGGAACUAAUUUGUAUGCGAAAGUAUAUUGAUUAGUUUUGGAGUACUCGUGGUCG
Method in brief: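 A randomised library covering all eight P1ex-region intron nucleotides was built with the intron in the knt kanamycin-resistance gene on pET-22b(+) and held in E. coli BL21(DE3). Cells were grown overnight at 37°C or 30°C on LB agar, with or without 25 μg/mL kanamycin, plus 100 μg/mL carbenicillin, 50 μM IPTG and 0.2% rhamnose, and pooled colonies were amplicon-sequenced on an Illumina HiSeq 2500. DiMSum fitness is the error-weighted combination of wild-type-normalised replicate fold changes, kanamycin versus none.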

| Sequence | self-splicing fitness (ln) (30 °C) | self-splicing fitness (ln) (37 °C) |
| --- | --- | --- |
| AGGUAGCAAUAUUACGUCGC | -2.37 ± 0.023 | -1.48 ± 0.037 |
| AGGUAGCAAUAUUACGUGAA | -2.213 ± 0.016 | -1.34 ± 0.034 |
| AGGUAGCAAUAUUACGUGAC | -2.734 ± 0.023 | -1.69 ± 0.037 |
| AGGUAGCAAUAUUACGUGGU | -3.697 ± 0.024 | -2.33 ± 0.036 |
| AGGUAGCAAUAUUACGUGUG | -2.883 ± 0.016 | -1.88 ± 0.033 |
| AGGUAGCAAUAUUACGUUAC | -3.617 ± 0.033 | -2.85 ± 0.048 |
| AGGUAGCAAUAUUACGUUUU | -2.585 ± 0.016 | -1.54 ± 0.034 |
| AGUAAGCAAUAUUACGAAAC | -3.94 ± 0.36 | – |
| AGUAAGCAAUAUUACGAUGU | -3.05 ± 0.15 | -1.17 ± 0.13 |
| AGUAAGCAAUAUUACGAUUG | -2.97 ± 0.29 | -2.54 ± 0.29 |
| AGUAAGCAAUAUUACGAUUU | -0.313 ± 0.1 | -0.0587 ± 0.13 |
| AGUAAGCAAUAUUACGCAUU | -2.48 ± 0.15 | -2.26 ± 0.18 |
| AGUAAGCAAUAUUACGCCUA | -0.00931 ± 0.12 | 0.208 ± 0.12 |
| AGUAAGCAAUAUUACGCGGU | -2.66 ± 0.24 | -2.46 ± 0.29 |
| AGUAAGCAAUAUUACGCUAC | -0.918 ± 0.3 | – |
| AGUAAGCAAUAUUACGGAAG | -2.55 ± 0.18 | -2.2 ± 0.21 |
| AGUAAGCAAUAUUACGGAUU | -1.92 ± 0.13 | -0.84 ± 0.16 |
| AGUAAGCAAUAUUACGGGGU | -3.24 ± 0.22 | -2.46 ± 0.26 |
| AGUAAGCAAUAUUACGUAAU | -3.15 ± 0.16 | -2.2 ± 0.17 |
| AGUAAGCAAUAUUACGUAUA | -2.38 ± 0.42 | -1.97 ± 0.28 |
| AGUAAGCAAUAUUACGUCCU | -0.602 ± 0.21 | 0.854 ± 0.23 |
| AGUAAGCAAUAUUACGUCGA | -2.11 ± 0.21 | -1.61 ± 0.2 |
| AGUAAGCAAUAUUACGUCUU | -0.968 ± 0.072 | -0.0602 ± 0.078 |
| AGUAAGCAAUAUUACGUGCU | -2.64 ± 0.23 | -1.2 ± 0.14 |
| AGUAAGCAAUAUUACGUGGU | -4.77 ± 0.29 | -2.59 ± 0.17 |

| Sequence | self-splicing fitness (ln) (30 °C) | self-splicing fitness (ln) (37 °C) |
| --- | --- | --- |
| AGUAAGCAAUAUUACGUUAA | -2.91 ± 0.21 | -1.63 ± 0.18 |
| AGUAAGCAAUAUUACGUUCG | -1.92 ± 0.14 | -1.17 ± 0.17 |
| AGUCAGCAAUAUUACGAGAC | -4.42 ± 0.39 | -2.56 ± 0.24 |
| AGUCAGCAAUAUUACGAGCC | -0.0313 ± 0.25 | 0.0229 ± 0.3 |
| AGUCAGCAAUAUUACGAGCU | -1.97 ± 0.17 | -0.789 ± 0.19 |
| AGUCAGCAAUAUUACGAGGG | -4.73 ± 0.31 | -3.06 ± 0.25 |
| AGUCAGCAAUAUUACGAGUC | -2.45 ± 0.11 | -1.09 ± 0.11 |
| AGUCAGCAAUAUUACGCACA | -0.062 ± 0.12 | -0.284 ± 0.14 |
| AGUCAGCAAUAUUACGCACC | -0.932 ± 0.12 | 0.383 ± 0.13 |
| AGUCAGCAAUAUUACGCCGG | -2.86 ± 0.48 | – |
| AGUCAGCAAUAUUACGCCUC | -2.68 ± 0.32 | -1 ± 0.42 |
| AGUCAGCAAUAUUACGCGAG | -1.57 ± 0.16 | -0.523 ± 0.16 |
| AGUCAGCAAUAUUACGCGUA | -0.295 ± 0.067 | 0.106 ± 0.07 |
| AGUCAGCAAUAUUACGGAAC | -2.87 ± 0.15 | -1.89 ± 0.15 |
| AGUCAGCAAUAUUACGGCGG | -0.596 ± 0.1 | -0.561 ± 0.12 |
| AGUCAGCAAUAUUACGGGUA | -2.02 ± 0.15 | -1.54 ± 0.14 |
| AGUCAGCAAUAUUACGUCCA | -1.25 ± 0.13 | -1.05 ± 0.15 |
| AGUCAGCAAUAUUACGUCGU | -0.476 ± 0.049 | -0.105 ± 0.064 |
| AGUCAGCAAUAUUACGUGAA | -1.5 ± 0.065 | -1.09 ± 0.082 |
| AGUCAGCAAUAUUACGUUCA | -1.5 ± 0.099 | -0.803 ± 0.081 |
| AGUCAGCAAUAUUACGUUCU | -0.318 ± 0.072 | 0.0939 ± 0.11 |
| AGUCAGCAAUAUUACGUUUU | -1.49 ± 0.074 | -0.278 ± 0.088 |
| AGUGAGCAAUAUUACGAAGA | -2.9 ± 0.35 | -1.85 ± 0.18 |
| AGUGAGCAAUAUUACGAAUA | – | -1.17 ± 0.22 |
| AGUGAGCAAUAUUACGACAC | -2.16 ± 0.29 | -1.64 ± 0.17 |

| Sequence | self-splicing fitness (ln) (30 °C) | self-splicing fitness (ln) (37 °C) |
| --- | --- | --- |
| AGUGAGCAAUAUUACGACAG | -2.83 ± 0.33 | -1.67 ± 0.34 |
| AGUGAGCAAUAUUACGACCU | -1.32 ± 0.15 | -0.41 ± 0.2 |
| AGUGAGCAAUAUUACGACUA | -1.06 ± 0.17 | -0.32 ± 0.15 |
| AGUGAGCAAUAUUACGACUG | -0.0618 ± 0.23 | 0.551 ± 0.31 |
| AGUGAGCAAUAUUACGAGUU | -2.21 ± 0.18 | -1.28 ± 0.18 |
| AGUGAGCAAUAUUACGAUGC | -2.29 ± 0.28 | -3.16 ± 0.43 |
| AGUGAGCAAUAUUACGAUGG | -3.11 ± 0.24 | -2.26 ± 0.25 |
| AGUGAGCAAUAUUACGCAGU | -3.01 ± 0.24 | -0.67 ± 0.2 |
| AGUGAGCAAUAUUACGCCUA | -3 ± 0.3 | -0.802 ± 0.18 |
| AGUGAGCAAUAUUACGCUAU | -3.19 ± 0.23 | -2.43 ± 0.42 |
| AGUGAGCAAUAUUACGCUCU | – | -2.1 ± 0.34 |
| AGUGAGCAAUAUUACGGUAA | – | -1.43 ± 0.34 |
| AGUGAGCAAUAUUACGGUAU | -3.9 ± 0.23 | -2.31 ± 0.24 |
| AGUGAGCAAUAUUACGGUCC | -0.948 ± 0.12 | -0.741 ± 0.15 |
| AGUGAGCAAUAUUACGGUCU | -0.639 ± 0.11 | -0.463 ± 0.12 |
| AGUGAGCAAUAUUACGUAGA | -3.84 ± 0.23 | -3.38 ± 0.32 |
| AGUUAGCAAUAUUACGAACG | -0.391 ± 0.088 | 0.572 ± 0.14 |
| AGUUAGCAAUAUUACGAAUC | -2.57 ± 0.15 | -2.03 ± 0.21 |
| AGUUAGCAAUAUUACGACUG | -0.637 ± 0.13 | -0.00615 ± 0.18 |
| AGUUAGCAAUAUUACGAGUC | -2.76 ± 0.33 | -3.27 ± 0.47 |
| AGUUAGCAAUAUUACGAGUG | -3.77 ± 0.31 | -1.78 ± 0.25 |
| AGUUAGCAAUAUUACGAUAU | -1.55 ± 0.16 | -0.311 ± 0.19 |
| AGUUAGCAAUAUUACGAUGA | -1.32 ± 0.18 | -0.239 ± 0.16 |
| AGUUAGCAAUAUUACGAUUC | -2.04 ± 0.24 | -0.169 ± 0.26 |
| AGUUAGCAAUAUUACGCAGC | -2.29 ± 0.16 | -1.18 ± 0.16 |

| Sequence | self-splicing fitness (ln) (30 °C) | self-splicing fitness (ln) (37 °C) |
| --- | --- | --- |
| AGUUAGCAAUAUUACGCCCU | -0.19 ± 0.12 | -0.312 ± 0.15 |
| AGUUAGCAAUAUUACGCGUA | -1.77 ± 0.22 | -0.709 ± 0.15 |
| AGUUAGCAAUAUUACGGACG | -0.568 ± 0.16 | 0.616 ± 0.18 |
| AGUUAGCAAUAUUACGGCCC | -0.803 ± 0.33 | – |
| AGUUAGCAAUAUUACGGCGU | -0.00974 ± 0.12 | 0.274 ± 0.12 |
| AGUUAGCAAUAUUACGGGCG | -0.303 ± 0.16 | -0.0474 ± 0.17 |
| AGUUAGCAAUAUUACGUACU | -1.16 ± 0.13 | -0.298 ± 0.12 |
| AGUUAGCAAUAUUACGUCAU | -2.48 ± 0.1 | -1.81 ± 0.13 |
| AGUUAGCAAUAUUACGUUAC | -3.26 ± 0.3 | -2.69 ± 0.33 |
| AGUUAGCAAUAUUACGUUCC | -0.837 ± 0.14 | -0.127 ± 0.18 |
| AGUUAGCAAUAUUACGUUGC | -4.72 ± 0.41 | -2.21 ± 0.21 |
| AGUUAGCAAUAUUACGUUGU | -4.38 ± 0.37 | -3.36 ± 0.37 |
| AGUUAGCAAUAUUACGUUUA | -2.23 ± 0.21 | -1.06 ± 0.21 |
| AUAAAGCAAUAUUACGAACC | -1.28 ± 0.18 | -0.77 ± 0.25 |
| AUAAAGCAAUAUUACGACCC | 0.352 ± 0.21 | 0.804 ± 0.26 |
| AUAAAGCAAUAUUACGACCU | -0.0242 ± 0.097 | 0.381 ± 0.12 |
| AUAAAGCAAUAUUACGAGAA | -2.7 ± 0.19 | -1.85 ± 0.23 |
| AUAAAGCAAUAUUACGAGUA | -1.12 ± 0.086 | -0.205 ± 0.12 |
| AUAAAGCAAUAUUACGAUGG | -2.15 ± 0.13 | -1.03 ± 0.18 |
| AUAAAGCAAUAUUACGAUUA | -0.144 ± 0.073 | 0.683 ± 0.095 |
| AUAAAGCAAUAUUACGCAAG | -1.19 ± 0.12 | -0.742 ± 0.14 |
| AUAAAGCAAUAUUACGCACC | -0.896 ± 0.33 | -1.02 ± 0.29 |
